For the assay, the target named is T1, 5-HT2CR (Mus musculus, UniProt P34968).
T1 construct: The dissolved mouse hippocampal tissue extract (with 500 μg protein); from tissue; host or cells: mouse hippocampus
T1 sequence (P34968 33-459): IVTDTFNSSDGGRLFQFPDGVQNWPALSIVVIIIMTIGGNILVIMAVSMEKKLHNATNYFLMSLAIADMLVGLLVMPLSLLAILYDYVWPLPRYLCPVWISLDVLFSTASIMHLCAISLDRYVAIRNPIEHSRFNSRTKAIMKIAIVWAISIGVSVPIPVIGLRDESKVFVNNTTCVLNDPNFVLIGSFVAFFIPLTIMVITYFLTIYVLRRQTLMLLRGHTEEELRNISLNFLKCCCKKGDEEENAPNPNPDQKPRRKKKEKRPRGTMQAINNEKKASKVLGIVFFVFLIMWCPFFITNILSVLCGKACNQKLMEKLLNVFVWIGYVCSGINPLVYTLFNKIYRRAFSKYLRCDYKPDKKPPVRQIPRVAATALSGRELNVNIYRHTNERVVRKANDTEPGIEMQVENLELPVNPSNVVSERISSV
The assay can be described thus: GST pulldown assay for mouse hippocampal tissue with D2R fragments. Format: binding. As to conditions: GST fusion protein of the D2R region, mouse hippocampal tissue extract, Western blotting (FIG. 4). From the text:
In order to identify the binding site of the D2R/5-HT2CR complex, full-length D2R cDNA clone (Genbank Accession No. X51645) was first amplified to obtain the cDNA fragments of the CT region of D2R (D2R-CT, T428-C443) and the third intracellular loop (IL3) region of D2R (D2R-IL3, K211-Q373). These fragments were subcloned into the BamH1/EcoR1 or BamH1/Xho1 site of pGEX-4T-3 plasmids (YouBio no: VT1255). The initiation methionine residue and the termination codon were incorporated when appropriate. All constructs were resequenced to confirm that the splicing fusion was properly achieved. E. coli BL21 viable cells (KangTi Life Technology, no: KTSM104L) were used for expression, and purification was performed to obtain the GST fusion protein containing the IL3 region of D2R (GST-D2R-IL3) and the GST fusion protein containing the CT region of D2R (GST-D2R-CT) from the bacterial lysates.
The dissolved mouse hippocampal tissue extract (with 500 μg protein) was diluted with 1×PBS/1% Triton X-100 and subsequently incubated with 20 μl of protein-GST-resin saturated with only GST protein or 15 μg of the GST fusion protein described above overnight at 4° C. Beads were washed with 1×PBS/1% Triton X-100 for 1-8 times. The bound proteins were eluted with SDS-PAGE Protein Loading Buffer (YeSen, no: 20315ES05), separated with SDS-PAGE, and subjected to Western blotting with their respective antibodies. Results were as shown in panel A of FIG. 4.
According to the method in this Example, pulldown analysis was performed using the GST fusion protein containing the KVC region of D2R (GST-D2R-KVC), the GST fusion protein containing the ES region of D2R (GST-D2R-ES), and the GST fusion protein containing the PQ region of D2R (GST-D2R-PQ), and the Western blotting results were shown in panel B of FIG. 4. […]
(In western blotting, separated proteins are transferred to a membrane and probed.)

Ends that are not written are not given here.

With “KVC region of D2R: GST fusion protein containing the KVC (K211-V270) region of D2R (KIYIVLRRRRKRVNTKRSSRAFRAHLRAPLKGNCTHPEDMKLCTVIMKSNGSFPVNRRRV; cysteine pairing not given here; also: GST fusion protein)”, the “pull down of 5-HT2CR” value is given as “could pull down the 5-HT2CR”.

For the molecule “KL polypeptide: K226-L240 region of D2R, SEQ ID NO: 1; tested in the pulldown as GST fusion protein GST-D2R-KL (KRSSRAFRAHLRAPL)”, the “pull down of 5-HT2CR” value is on record as “could associate with 5-HT2CR”.

B1: IL3 region of D2R: GST fusion protein containing the third intracellular loop (IL3) region of D2R, K211-Q373 (protein)
chain: KIYIVLRRRRKRVNTKRSSRAFRAHLRAPLKGNCTHPEDMKLCTVIMKSNGSFPVNRRRVEAARRAQELEMEMLSSTSPPERTRYSPIPPSHHQLTLPDPSHHGLHSTPDSPAKPEKNGHAKDHPKIAKIFEIQTMPNGKTRTSLKTMSRRKLSQQKEKKATQ
modifications: left off: a dimerising Fc or GST; large carriers; small tags and cut ends
notes: GST fusion protein containing the third intracellular loop (IL3) region of D2R, K211-Q373
For the molecule B1, the “pull down of 5-HT2CR” value is “could pull down the 5-HT2CR”.
